Laboratory results published in paper PMC11430019 (bioRxiv, 2024).

Assays:
[1] = target: HSV-2 gH ectodomain / gL heterodimeric complex (gH_(ecto)/gL) (HSV-2, UniProt P89445;P28278); assay: cryo-EM structure
[2] = target: HSV-2 gH ectodomain (gH_(ecto)) (HSV-2, UniProt P89445); assay: cryo-EM structure
Sequence of HSV-2 gH ectodomain (gH_(ecto)) (P89445 19-803): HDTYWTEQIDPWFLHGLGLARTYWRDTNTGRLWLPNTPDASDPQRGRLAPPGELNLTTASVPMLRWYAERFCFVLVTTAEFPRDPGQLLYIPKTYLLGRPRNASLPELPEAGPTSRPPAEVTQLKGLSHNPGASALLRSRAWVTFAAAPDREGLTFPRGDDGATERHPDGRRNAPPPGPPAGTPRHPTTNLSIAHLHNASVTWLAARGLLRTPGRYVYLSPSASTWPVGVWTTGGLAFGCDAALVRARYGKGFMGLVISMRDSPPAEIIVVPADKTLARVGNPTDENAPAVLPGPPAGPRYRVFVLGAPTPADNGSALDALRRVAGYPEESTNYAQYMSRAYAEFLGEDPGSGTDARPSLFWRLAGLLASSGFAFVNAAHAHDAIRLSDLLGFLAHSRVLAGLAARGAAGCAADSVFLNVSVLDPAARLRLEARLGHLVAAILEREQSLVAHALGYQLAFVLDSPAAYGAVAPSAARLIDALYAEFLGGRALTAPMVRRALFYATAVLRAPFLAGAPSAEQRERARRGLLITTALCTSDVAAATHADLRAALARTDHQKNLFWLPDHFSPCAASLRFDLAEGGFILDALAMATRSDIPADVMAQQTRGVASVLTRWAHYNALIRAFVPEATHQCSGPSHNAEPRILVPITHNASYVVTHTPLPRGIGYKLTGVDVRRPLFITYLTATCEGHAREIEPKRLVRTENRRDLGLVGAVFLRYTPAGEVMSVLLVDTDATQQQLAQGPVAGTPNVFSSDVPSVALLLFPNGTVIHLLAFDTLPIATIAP

Sequence of HSV-2 gH ectodomain / gL heterodimeric complex (gH_(ecto)/gL) (P89445 19-803, chain 1 of 2): as the sequence (P89445 19-803) above
Sequence of HSV-2 gH ectodomain / gL heterodimeric complex (gH_(ecto)/gL) (P28278 17-224, chain 2 of 2): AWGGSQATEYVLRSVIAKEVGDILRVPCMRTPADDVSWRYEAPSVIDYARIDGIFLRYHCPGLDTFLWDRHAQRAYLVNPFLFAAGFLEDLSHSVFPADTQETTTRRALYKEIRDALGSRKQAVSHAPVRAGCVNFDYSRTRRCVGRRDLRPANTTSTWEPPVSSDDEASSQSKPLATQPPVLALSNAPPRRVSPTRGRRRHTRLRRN

B1: CHL27 Fab (Fab, V domains shown)
VH: QIQLVQSGPELKKPGETVKISCRASGYTFTDYSMHWVKQAPGKGLQWMGWIDTETGEPTYADDFKGRFAFSLETSAITAYLQINNLKNEDTATYFCARGLSPYWGHGTLVTVSA
VL: NIVMTQSPKSMSMSVGERVTLSCKASENVGSYVSWYQQKPEQSPKLLIYGASIRHTGVPDRFAGSGSATDFTLTISSVQAEDLAAYHCGQTYSSPYTFGGGTKLEIK
binding result [1]: binds
binding result [2]: binds
